{"source": "paper PMC3269530", "about": "(Journal of Molecular Biology, 2011)", "molecules": {"B1": {"name": "ArfA-bc: joint B and C domains of ArfA, residues 73–326 (protein)", "chain": "GASALSLSLLSISRSGNTVTLIGDFPDEAAKAALMTALNGLLAPGVNVIDQIHVDPVVRSLDFSSAEPVFTASVPIPDFGLKVERDTVTLTGTAPSSEHKDAVKRAATSTWPDMKIVNNIEVTGQAPPGPPASGPCADLQSAINAVTGGPIAFGNDGASLIPADYEILNRVADKLKACPDARVTINGYTDNTGSEGINIPLSAQRAKIVADYLVARGVAGDHIATVGLGSVNPIASNATPEGRAKNRRVEIVVN"}, "B2": {"name": "ArfA-c: C domain of M. tuberculosis ArfA (Rv0899), residues 196–326 (protein)", "chain": "GQAPPGPPASGPCADLQSAINAVTGGPIAFGNDGASLIPADYEILNRVADKLKACPDARVTINGYTDNTGSEGINIPLSAQRAKIVADYLVARGVAGDHIATVGLGSVNPIASNATPEGRAKNRRVEIVVN"}}, "key": {"ArfA-c [1]": {"system": "ArfA-c", "format": "binding, M. tuberculosis"}, "ArfA-c [2]": {"target": "ArfA-c (Mycobacterium tuberculosis, UniProt P9WIU5)", "assay": "biochemical", "format": "binding"}, "[3]": {"system": "ArfA (S302 amide proton, β3-α4 loop)", "assay": "Saturation transfer difference NMR", "format": "binding, M. tuberculosis"}, "[4]": {"format": "binding, Mycobacterium tuberculosis, strain H37Rv", "conditions": "qualitative"}}, "data": [{"molecule": "CC(=O)N[C@H]1C(OP(=O)(O)OP(=O)(O)OC[C@H]2O[C@@H](n3ccc(=O)[nH]c3=O)[C@H](O)[C@@H]2O)O[C@H](CO)[C@@H](O)[C@@H]1O[C@H](C)C(=O)N[C@@H](C)C(=O)N[C@H](CCC(=O)N[C@@H](CCCCN)C(=O)N[C@H](C)C(=O)N[C@H](C)C(=O)O)C(=O)O", "note": "(stereo partly drawn) [UMKP, uridine-5'-diphosphate–MurNAc–L-Ala–D-γ-Glu–L-Lys–D-Ala–D-Ala]", "values": [{"measurement": "effect on the NMR spectrum of ArfA-c", "setting": "ArfA-c [1]", "result": "no effect"}]}, {"molecule": "CC(=O)N[C@H]1[C@@H](OP(=O)(O)OP(=O)(O)OC[C@H]2O[C@@H](n3ccc(=O)[nH]c3=O)[C@H](O)[C@@H]2O)O[C@H](CO)[C@@H](O)[C@@H]1O[C@H](C)C(=O)N[C@@H](C)C(=O)N[C@H](CCC(=O)N[C@@H](CCC[C@@H](N)C(=O)O)C(=O)N[C@H](C)C(=O)N[C@H](C)C(=O)O)C(=O)O", "note": "[UMDP, uridine-5'-diphosphate–MurNAc–L-Ala–D-γ-Glu–m-DAP–D-Ala–D-Ala (Park's nucleotide)]", "values": [{"measurement": "Kd", "setting": "ArfA-c [2]", "result": "~1000", "unit": "µM"}]}, {"molecule": "uridine-5'-diphosphate–MurNAc–L-Ala–D-γ-Glu–m-DAP–D-Ala– D-Ala [UMDP]", "values": [{"measurement": "Kd", "setting": "ArfA-c [1]", "result": "~1000", "unit": "µM"}, {"measurement": "proximity of S302 amide proton to MurNAc methyl protons", "setting": "[3]", "result": "in some proximity"}]}, {"molecule": "B1", "values": [{"measurement": "stabilization provided by the disulfide bond", "setting": "GSSG vs DTT, Sypro orange DSF, Fig. 2a", "result": "about 1 °C"}]}, {"molecule": "B2", "values": [{"measurement": "temperature of thermal unfolding, pH 4", "setting": "pH4, 15 µM protein, Sypro orange, 20-95°C, 0.03°C per second, Fig. 2d", "result": 65.0, "unit": "°C"}, {"measurement": "temperature of thermal unfolding, pH 7", "setting": "pH7, 15 µM protein, Sypro orange, 20-95°C, 0.03°C per second, Fig. 2d", "result": 63.2, "unit": "°C"}, {"measurement": "increase in temperature of thermal unfolding on lowering pH from 7 to 4", "setting": "pH 7 to 4, Sypro orange DSF, Fig. 2d", "result": 2, "unit": "°C"}, {"measurement": "affinity for polymeric M. tuberculosis peptidoglycan", "setting": "[4]", "result": "strong (enough to precipitate the protein)"}]}]}
